Here are results for three molecules from US20080233097A1, “Phosphorylation Site Of Mitogen-Activated Protein Kinases, Modified Proteins And Applications” (UNIVERSIDAD AUTONOMA DE MADRID, priority 2005, published 2008).

One data set concerns the target T1, p38 (Mus musculus, UniProt P47811).
T1 construct: with whole p38α in the same conditions as described in section A; made in house; host or cells: E. coli
The experiment in a line: effect of heparin on catalytic activity of p38. It is filed as biochemical. From the text:
Subsequently, the inventors decided to study the possible interactions between GRK2 and p38. The first experimental approach was the phosphorylation assays of both proteins. […] These experiments were completed with negative controls of GST phosphorylation by GRK2 and by inspecting the binding area between the GST portion and the ORF of p38.

Data set [1] deals with T2, GST-280-360p38 (last 80 amino acids of p38α fused to GST, from pDEST15).
T2 chain: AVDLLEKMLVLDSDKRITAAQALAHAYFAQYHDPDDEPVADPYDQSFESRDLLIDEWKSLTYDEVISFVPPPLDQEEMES

Data set [2] has as its target T3, GST-p38 (wild type p38α fused to GST, from pGEX2T-p38α).
T3 chain: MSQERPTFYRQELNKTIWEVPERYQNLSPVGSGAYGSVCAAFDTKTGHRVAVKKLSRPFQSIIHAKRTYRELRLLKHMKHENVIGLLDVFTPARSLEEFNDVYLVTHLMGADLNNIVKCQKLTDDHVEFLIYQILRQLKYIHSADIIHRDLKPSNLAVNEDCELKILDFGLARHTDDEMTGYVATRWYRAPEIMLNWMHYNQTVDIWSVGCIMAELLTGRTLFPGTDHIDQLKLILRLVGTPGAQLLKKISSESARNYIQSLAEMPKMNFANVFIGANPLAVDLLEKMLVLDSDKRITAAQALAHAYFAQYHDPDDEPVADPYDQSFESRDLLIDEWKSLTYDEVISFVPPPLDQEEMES

A further data set deals with T4, GRK2 (Bos taurus, UniProt P21146).
T4 construct: made in house; host or cells: Sf9 cells (baculovirus)
T4 sequence (P21146 1-689): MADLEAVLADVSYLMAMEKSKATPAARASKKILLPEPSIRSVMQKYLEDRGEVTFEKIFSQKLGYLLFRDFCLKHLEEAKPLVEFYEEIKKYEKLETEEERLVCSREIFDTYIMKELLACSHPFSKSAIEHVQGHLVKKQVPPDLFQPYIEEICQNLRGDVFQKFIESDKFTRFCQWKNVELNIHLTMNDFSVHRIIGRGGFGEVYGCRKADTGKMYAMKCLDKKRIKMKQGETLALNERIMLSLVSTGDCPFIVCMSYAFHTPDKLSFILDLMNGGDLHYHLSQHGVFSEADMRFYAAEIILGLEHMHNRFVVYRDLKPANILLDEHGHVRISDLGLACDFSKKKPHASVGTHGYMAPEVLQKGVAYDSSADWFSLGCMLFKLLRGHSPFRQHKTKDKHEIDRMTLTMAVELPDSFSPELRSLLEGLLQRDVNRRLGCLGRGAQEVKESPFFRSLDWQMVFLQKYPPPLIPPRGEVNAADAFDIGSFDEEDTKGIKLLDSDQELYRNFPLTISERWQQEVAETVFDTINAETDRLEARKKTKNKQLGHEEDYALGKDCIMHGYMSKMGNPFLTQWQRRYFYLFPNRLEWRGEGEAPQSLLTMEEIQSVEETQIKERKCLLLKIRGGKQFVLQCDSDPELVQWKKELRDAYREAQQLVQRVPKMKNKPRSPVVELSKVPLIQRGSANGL
The data set can be described thus: phosphorylation of p38 mutants and truncated proteins by GRK2 in vitro. Type of data set: biochemical. To be noted: GST fusion proteins, 30 minutes at 30° C. The protocol: FIG. 6A: Proteins fused to GST (black rectangle in the protein schemes) were purified from bacteria transformed with the plasmids pGEX2T-p38α, pGEX4T-Mxi2 and pGEX4T-Mxi2Δ17: p38α, Mxi2 and Mxi2Δ17. The […] isoforms used as C-terminal truncated mutants for trying to limit the GRK2 phosphorylation site. […] Heparin (150 nM) was included as a specific GRK2 inhibitor. The reactions were stopped by adding SDS breaking buffer. The samples were resolved in 8% SDS-PAGE. For the purpose of assuring the inclusion of identical amounts of protein, they were first visualized in the gel by Coomassie Brilliant Blue (CBB) staining. Then the gel was dried and the radioactivity incorporated to the proteins (^32P) was detected. FIG. 6B: The truncated GST-280-360p38 protein, corresponding to the last 80 p38α amino acids, was generated by means of the Invitrogen Gateway system. Phosphorylation assays were carried out with Mxi2Δ17 as a p38 N-terminal, 280-360 p38 as C-terminal and with whole p38α in the same conditions as described in section A. The phosphorylation was detected by autoradiography (^32P) and controls of the amount of protein used in the assays were carried out concomitantly by Western blot with the anti-GST antibody. The presence of the GST-280-360p38 protein, which is not phosphorylated, is clearly observed. STD, mobility of standard molecular weight proteins.
FIG. 9A: p38T123A and p38T123D proteins, fused to GST, were made by directed mutagenesis in the prokaryotic expression plasmids pGEX2T. The ability of the recombinant GST-p38T123A and GST-p38T123D proteins to be GRK2 substrates in comparison to the wild GST-p38WT protein and at the final concentrations indicated in the Figure was assayed. The upper panels represent the obtained phosphorylation (32 P) and the lower panels show, by anti-p38N WB, the amount of recombinant protein used in the assays. […]
Heparin (150 nM) was included as a specific GRK2 inhibitor. […] Subsequently, the gel was dried and the radioactivity incorporated to the proteins (^32P) was detected. […]

A further data set concerns MKK6CAM. The experiment in a line: p38 phosphorylation by MKK6CAM in vitro. To be noted: 150 nM fusion protein, 40 ng MKK6CAM. Type of data set: biochemical. Here is the method:
(§1) The reactions were carried out at 30° C. for 30 minutes and the proteins were separated in 8% SDS-PAGE gels. The amount of p38 in each point was visualized by Coomassie Blue staining. Then the radioactivity in each p38 isoform was determined. […] FIG. 11B: In these same assays, the ability of MKK6CAM-activated GST-p38WT, GST-p38T123A and GST-p38T123D to phosphorylate 2 μg of GST-ATF2 is evaluated. The representative autoradiography (^32P) of the total GST-ATF2 control (Coomassie Blue) is attached.
As in the previous cases, the reactions were left to take place at 30° C. for 30 minutes and the proteins were resolved in 8% SDS-PAGE gels. With the purpose of assuring the inclusion of identical amounts of protein, they were visualized in the gel by Coomassie Blue staining. Subsequently, the radioactivity incorporated in each p38 isoform was determined.

The next data set has as its system GST-ATF2. The experiment in a line: phosphorylation of GST-ATF2 by MKK6CAM-activated p38. To be noted: with MKK6CAM, 2 μg GST-ATF2. Type of data set: biochemical. The protocol:
as §1
(§2) The ATF2 and MEF2A forms bound to GST were used to test the catalytic activity of GST-p38. In most cases, 2 μg of GST-ATF2 or GST-MEF2A, of own production, were used. The phosphorylation conditions are the same as set forth in the foregoing cases. Nevertheless, in other occasions, relevantly pointed out in the Figures, 0.2 μg of substrate were used and the phosphorylation reaction was allowed to take pace for 15 minutes only.

Another data set concerns GST-MEF2A. The experiment in a line: phosphorylation of GST-MEF2A by p38. It is filed as biochemical. The protocol: FIG. 12A: In vitro phosphorylations are carried out with the fusion proteins indicated in the Figure, in the presence (+) or absence (−) of recombinant MKK6CAM(40 ng) and 2 μg of GST-MEF2A. The assay was left to take place for 30 minutes. The proteins were separated in 8% SDS-PAGE, stained with CBB and the incorporated radioactivity (^32P) was detected. Panels of a representative experiment of the three assays carried out independently are provided. FIG. 12B: The baseline activity of the three p38 fusion proteins in the absence of the MKK6CAM activator was evaluated in the previously described conditions. A representative autoradiography after a long exposure is shown.
as §2

T1 sequence (P47811 whole entry): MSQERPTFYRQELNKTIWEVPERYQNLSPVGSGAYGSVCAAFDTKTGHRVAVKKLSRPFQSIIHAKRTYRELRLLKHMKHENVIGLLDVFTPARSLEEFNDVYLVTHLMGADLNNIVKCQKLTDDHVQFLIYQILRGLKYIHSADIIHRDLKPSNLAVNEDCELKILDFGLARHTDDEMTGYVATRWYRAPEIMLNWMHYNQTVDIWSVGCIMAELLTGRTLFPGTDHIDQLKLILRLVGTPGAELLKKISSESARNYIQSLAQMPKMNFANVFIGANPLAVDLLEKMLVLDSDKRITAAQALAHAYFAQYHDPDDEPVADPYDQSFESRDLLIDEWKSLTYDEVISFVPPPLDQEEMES

heparin: the “effect on catalytic activity of p38” value at p38 is given as “does not affect the catalytic activity of p38”.

B1: Recombinant GRK2 purified by the Baculovirus system (from infected Sf9 cells) (protein)
chain: MADLEAVLADVSYLMAMEKSKATPAARASKKILLPEPSIRSVMQKYLEDRGEVTFEKIFSQKLGYLLFRDFCLKHLEEAKPLVEFYEEIKKYEKLETEEERLVCSREIFDTYIMKELLACSHPFSKSAIEHVQGHLVKKQVPPDLFQPYIEEICQNLRGDVFQKFIESDKFTRFCQWKNVELNIHLTMNDFSVHRIIGRGGFGEVYGCRKADTGKMYAMKCLDKKRIKMKQGETLALNERIMLSLVSTGDCPFIVCMSYAFHTPDKLSFILDLMNGGDLHYHLSQHGVFSEADMRFYAAEIILGLEHMHNRFVVYRDLKPANILLDEHGHVRISDLGLACDFSKKKPHASVGTHGYMAPEVLQKGVAYDSSADWFSLGCMLFKLLRGHSPFRQHKTKDKHEIDRMTLTMAVELPDSFSPELRSLLEGLLQRDVNRRLGCLGRGAQEVKESPFFRSLDWQMVFLQKYPPPLIPPRGEVNAADAFDIGSFDEEDTKGIKLLDSDQELYRNFPLTISERWQQEVAETVFDTINAETDRLEARKKTKNKQLGHEEDYALGKDCIMHGYMSKMGNPFLTQWQRRYFYLFPNRLEWRGEGEAPQSLLTMEEIQSVEETQIKERKCLLLKIRGGKQFVLQCDSDPELVQWKKELRDAYREAQQLVQRVPKMKNKPRSPVVELSKVPLIQRGSANGL
B1: the “phosphorylation by GRK2 (32P incorporation)” value was “after purifying the fusion protein and testing it against GRK2, no trace whatsoever of phosphorylation was obtained” in data set [1]; “With comparable amounts of p38α, Mxi2 and MxiΔ17, the last two were not phosphorylated by GRK2” in the data set with GST-Mxi2, Q16539; “With comparable amounts of p38α, Mxi2 and MxiΔ17, the last two were not phosphorylated by GRK2” in the data set with GST-Mxi2Δ17, Q16539; “none of the two mutant is a GRK2 substrate” with GST-p38T123A; “none of the two mutant is a GRK2 substrate” with GST-p38T123D. Besides, in [2], the “Km of p38 phosphorylation by GRK2” value is on record as “the value of the Km=80 nM”. Moreover, the “Michaelis-Menten constant (Km) of GST-p38 phosphorylation by GRK2” value in data set [2] was “Km=79.56 nM”.

B2: p38T123A: p38α mutant form that cannot be phosphorylated by GRK2 (protein, UniProt P47811 2-360, looked up, variant T123A)
Mitogen-activated protein …: SQERPTFYRQELNKTIWEVPERYQNLSPVGSGAYGSVCAAFDTKTGHRVAVKKLSRPFQSIIHAKRTYRELRLLKHMKHENVIGLLDVFTPARSLEEFNDVYLVTHLMGADLNNIVKCQKLADDHVQFLIYQILRGLKYIHSADIIHRDLKPSNLAVNEDCELKILDFGLARHTDDEMTGYVATRWYRAPEIMLNWMHYNQTVDIWSVGCIMAELLTGRTLFPGTDHIDQLKLILRLVGTPGAELLKKISSESARNYIQSLAQMPKMNFANVFIGANPLAVDLLEKMLVLDSDKRITAAQALAHAYFAQYHDPDDEPVADPYDQSFESRDLLIDEWKSLTYDEVISFVPPPLDQEEMES
modifications: GST fusion in some forms
notes: p38α mutant form that cannot be phosphorylated by GRK2
For B2, the “ability to be a GRK2 substrate (32P incorporation)” value in the data set with GRK2 was “none of the two mutant is a GRK2 substrate”. For the same molecule, the “phosphorylation by MKK6CAM (32P)” value in the data set with MKK6CAM is listed as “correctly phosphorylated by MKK6CAM”. For the same molecule, the “catalytic activity on GST-ATF2” value in the data set with GST-ATF2 was “phosphorylate it analogously”. For the same molecule, the “baseline catalytic activity on MEF2A” value in the data set with GST-MEF2A (absence of the activating kinase MKK6, long exposure) is “middle ground between p38αWT and p38Tα123D”. In addition, in the data set with GST-MEF2A (with MKK6CAM, 2 μg GST-MEF2A), the “catalytic activity on MEF2A” value is listed as “conserves the ability to phosphorylate this substrate”.
